From paper PMC2481239 (Nature structural & molecular biology, 2008)

T1: Rpn1 (S. cerevisiae, UniProt P38764 1-993)
T1 sequence: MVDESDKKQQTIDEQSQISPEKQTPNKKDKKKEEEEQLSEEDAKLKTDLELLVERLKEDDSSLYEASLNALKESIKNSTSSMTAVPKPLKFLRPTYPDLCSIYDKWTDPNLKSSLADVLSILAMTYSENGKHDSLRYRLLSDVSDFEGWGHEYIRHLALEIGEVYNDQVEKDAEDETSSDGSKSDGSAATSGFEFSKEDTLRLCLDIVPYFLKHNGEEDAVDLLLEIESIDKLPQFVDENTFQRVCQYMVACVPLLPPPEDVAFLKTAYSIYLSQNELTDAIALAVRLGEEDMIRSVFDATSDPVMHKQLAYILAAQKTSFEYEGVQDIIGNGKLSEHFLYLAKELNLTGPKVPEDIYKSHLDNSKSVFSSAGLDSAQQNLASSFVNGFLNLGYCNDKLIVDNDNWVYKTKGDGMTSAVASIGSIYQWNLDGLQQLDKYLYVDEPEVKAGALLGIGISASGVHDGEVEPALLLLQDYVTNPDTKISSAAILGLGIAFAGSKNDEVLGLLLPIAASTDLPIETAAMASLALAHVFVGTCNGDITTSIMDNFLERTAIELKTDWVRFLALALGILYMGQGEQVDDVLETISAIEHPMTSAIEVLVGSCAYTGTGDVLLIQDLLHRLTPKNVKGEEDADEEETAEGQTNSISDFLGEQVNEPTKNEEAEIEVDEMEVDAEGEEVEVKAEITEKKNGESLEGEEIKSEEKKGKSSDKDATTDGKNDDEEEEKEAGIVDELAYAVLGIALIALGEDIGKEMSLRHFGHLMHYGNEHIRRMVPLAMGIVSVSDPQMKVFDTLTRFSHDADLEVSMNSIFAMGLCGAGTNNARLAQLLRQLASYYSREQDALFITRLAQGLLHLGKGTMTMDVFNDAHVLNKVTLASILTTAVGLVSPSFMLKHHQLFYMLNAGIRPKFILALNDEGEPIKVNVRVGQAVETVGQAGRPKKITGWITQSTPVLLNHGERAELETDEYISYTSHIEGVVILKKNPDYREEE

B1: Rpn2 (natural protein)
chain: MSLTTAAPLLALLRENQDSVKTYALESINNVVDQLWSEISNELPDIEALYDDDTFSDREMAALIASKVYYNLGEYESAVKYALAAKDRFDIDEKSQFVETIVSKSIEMYVQEASKQYTKDEQFYTKDIIDPKLTSIFERMIEKCLKASELKLALGIALEGYRLDIIESALKSKLDQDSTSENVKIINYLLTLAITTVTNSKFRSSILRKSFDFLMNMPNCDYLTLNKVVVNLNDAGLALQLFKKLKEENDEGLSAQIAFDLVSSASQQLLEILVTELTAQGYDPALLNILSGLPTCDYYNTFLLNNKNIDIGLLNKSKSSLDGKFSLFHTAVSVANGFMHAGTTDNSFIKANLPWLGKAQNWAKFTATASLGVIHKGNLLEGKKVMAPYLPGSRASSRFIKGGSLYGLGLIYAGFGRDTTDYLKNIIVENSGTSGDEDVDVLLHGASLGIGLAAMGSANIEVYEALKEVLYNDSATSGEAAALGMGLCMLGTGKPEAIHDMFTYSQETQHGNITRGLAVGLALINYGRQELADDLITKMLASDESLLRYGGAFTIALAYAGTGNNSAVKRLLHVAVSDSNDDVRRAAVIALGFVLLRDYTTVPRIVQLLSKSHNAHVRCGTAFALGIACAGKGLQSAIDVLDPLTKDPVDFVRQAAMIALSMILIQQTEKLNPQVADINKNFLSVITNKHQEGLAKFGACVAQGIMNAGGRNVTIQLENADTGTLDTKSVVGLVMFSQFWYWFPLAHFLSLSFTPTTVIGIRGSDQAIPKFQMNCYAKEDAFSYPRMYEEASGKEVEKVATAVLSTTARAKARAKKTKKEKGPNEEEKKKEHEEKEKERETNKKGIKETKENDEEFYKNKYSSKPYKVDNMTRILPQQSRYISFIKDDRFVPVRKFKGNNGVVVLRDREPKEPVALIETVRQMKDVNAPLPTPFKVDDNVDFPSA
B2: Rad23 (natural protein)
chain: MVSLTFKNFKKEKVPLDLEPSNTILETKTKLAQSISCEESQIKLIYSGKVLQDSKTVSECGLKDGDQVVFMVSQKKSTKTKVTEPPIAPESATTPGRENSTEASPSTDASAAPAATAPEGSQPQEEQTATTERTESASTPGFVVGTERNETIERIMEMGYQREEVERALRAAFNNPDRAVEYLLMGIPENLRQPEPQQQTAAAAEQPSTAATTAEQPAEDDLFAQAAQGGNASSGALGTTGGATDAAQGGPPGSIGLTVEDLLSLRQVVSGNPEALAPLLENISARYPQLREHIMANPEVFVSMLLEAVGDNMQDVMEGADDMVEGEDIEVTGEAAAAGLGQGEGEGSFQVDYTPEDDQAISRLCELGFERDLVIQVYFACDKNEEAAANILFSDHAD

Experiments:
Rpn1 [1] = biological target: T1, Rpn1; experiment: cross-linking
Rpn1-Rpn2 unit = Rpn1-Rpn2 unit (S. cerevisiae, UniProt P38764 1-993; P32565 1-945); experiment: atomic force microscopy
Rpn1 [2] = biological target: T1, Rpn1; experiment: atomic force microscopy

Binder	binding result (Rpn1 [1])	stoichiometry N (Rpn1-Rpn2 unit)	stoichiometry N (Rpn1 [2])
B1	binds		
B2		1	1
